The source of these data is IntAct's records for PubMed 29039417.

B1: BBSome complex member BBS4 (Homo sapiens), Q96RK4 (parent)
chain: MAEERVATRTQFPVSTESQKPRQKKAPEFPILEKQNWLIHLHYIRKDYEACKAVIKEQLQETQGLCEYAIYVQALIFRLEGNIQESLELFQTCAVLSPQSADNLKQVARSLFLLGKHKAAIEVYNEAAKLNQKDWEISHNLGVCYIYLKQFNKAQDQLHNALNLNRHDLTYIMLGKIHLLEGDLDKAIEVYKKAVEFSPENTELLTTLGLLYLQLGIYQKAFEHLGNALTYDPTNYKAILAAGSMMQTHGDFDVALTKYRVVACAVPESPPLWNNIGMCFFGKKKYVAAISCLKRANYLAPFDWKILYNLGLVHLTMQQYASAFHFLSAAINFQPKMGELYMLLAVALTNLEDIENAKRAYAEAVHLDKCNPLVNLNYAVLLYNQGEKKNALAQYQEMEKKVSLLKDNSSLEFDSEMVEMAQKLGAALQVGEALVWTKPVKDPKSKHQTTSTSKPASFQQPLGSNQALGQAMSSAAAYRTLPSGAGGTSQFTKPPSLPLEPEPAVESSPTETSEQIREK
partner: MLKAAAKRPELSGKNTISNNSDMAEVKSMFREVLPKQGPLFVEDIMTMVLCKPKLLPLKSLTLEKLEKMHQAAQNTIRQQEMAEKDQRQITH

Variants of B1 are the subject of the assay. The settings on record: with bbip1_human BBIP1, A8MTZ0.
For MAEERVATRTQFPVSTESQKPRQKKAPEFPILEKQNWLIHLHYIRKDYEACKAVIKEQLQETQGLCEYAIYVQALIFRLEGNIQESLELFQTCAVLSPQSADNLKQVARSLFLLGKHKAAIEVYNEAAKLNQKDWEISHNLGVCYIYLKQFNKAQDQLHNALNLNRHDLTYIMLGKIHLLEGDLDKAIEVYKKAVEFSPENTELLTTLGLLYLQLGIYQKAFEHLGNALTYDPTNYKAILAAGSMMQTHGDFDVALTKYRVVACAVPESPPLWNNIGMCFFGKKKYVAAISCLKRANYLAPEDWKILYNLGLVHLTMQQYASAFHFLSAAINFQPKMGELYMLLAVALTNLEDIENAKRAYAEAVHLDKCNPLVNLNYAVLLYNQGEKKNALAQYQEMEKKVSLLKDNSSLEFDSEMVEMAQKLGAALQVGEALVWTKPVKDPKSKHQTTSTSKPASFQQPLGSNQALGQAMSSAAAYRTLPSGAGGTSQFTKPPSLPLEPEPAVESSPTETSEQIREK [F302E], the “effect of a mutation on the interaction” value was “with no effect”.
With MAEERVATRTQFPVSTESQKPRQKKAPEFPILEKQNWLIHLHYIRKDYEACKAVIKEQLQETQGLCEYAIYVQALIFRLEGNIQESLELFQTCAVLSPQSADNLKQVARSLFLLGKHKAAIEVYNEAAKLNQKDWEISHNLGVCYIYLKQFNKAQDQLHNALNLNRHDLTYIMLGKIHLLEGDLDKAIEVYKKAVEFSPENTELLTTLGLLYLQLGIYQKAFEHLGNALTYDPTNYKAILAAGSMMQTHGDFDVALTKYRVVACAVPESPPLWNNIGMCFFGKKKYVAAISCLKRANYLAPKDWKILYNLGLVHLTMQQYASAFHFLSAAINFQPKMGELYMLLAVALTNLEDIENAKRAYAEAVHLDKCNPLVNLNYAVLLYNQGEKKNALAQYQEMEKKVSLLKDNSSLEFDSEMVEMAQKLGAALQVGEALVWTKPVKDPKSKHQTTSTSKPASFQQPLGSNQALGQAMSSAAAYRTLPSGAGGTSQFTKPPSLPLEPEPAVESSPTETSEQIREK [F302K] the entry was “with no effect”; with MAEERVATRTQFPVSTESQKPRQKKAPEFPILEKQNWLIHLHYIRKDYEACKAVIKEQLQETQGLCEYAIYVQALIFRLEGNIQESLELFQTCAVLSPQSADNLKQVARSLFLLGKHKAAIEVYNEAAKLNQKDWEISHNLGVCYIYLKQFNKAQDQLHNALNLNRHDLTYIMLGKIHLLEGDLDKAIEVYKKAVEFSPENTELLTTLGLLYLQLGIYQKAFEHLGNALTYDPTNYKAILAAGSMMQTHGDFDVALTKYRVVACAVPESPPLWNNIGMCFFGKKKYVAAISCLKRANYLAPADWKILYNLGLVHLTMQQYASAFHFLSAAINFQPKMGELYMLLAVALTNLEDIENAKRAYAEAVHLDKCNPLVNLNYAVLLYNQGEKKNALAQYQEMEKKVSLLKDNSSLEFDSEMVEMAQKLGAALQVGEALVWTKPVKDPKSKHQTTSTSKPASFQQPLGSNQALGQAMSSAAAYRTLPSGAGGTSQFTKPPSLPLEPEPAVESSPTETSEQIREK [F302A], “with no effect”; with MAEERVATRTQFPVSTESQKPRQKKAPEFPILEKQNWLIHLHYIRKDYEACKAVIKEQLQETQGLCEYAIYVQALIFRLEGNIQESLELFQTCAVLSPQSADNLKQVARSLFLLGKHKAAIEVYNEAAKLNQKDWEISHNLGVCYIYLKQFNKAQDQLHNALNLNRHDLTYIMLGKIHLLEGDLDKAIEVYKKAVEFSPENTELLTTLGLLYLQLGIYQKAFEHLGNALTYDPTNYKAILAAGSMMQTHGDFDVALTKYRVVACAVPESPPLWNNIGMCFFGKKKYVAAISCLKRANYLAPFAWKILYNLGLVHLTMQQYASAFHFLSAAINFQPKMGELYMLLAVALTNLEDIENAKRAYAEAVHLDKCNPLVNLNYAVLLYNQGEKKNALAQYQEMEKKVSLLKDNSSLEFDSEMVEMAQKLGAALQVGEALVWTKPVKDPKSKHQTTSTSKPASFQQPLGSNQALGQAMSSAAAYRTLPSGAGGTSQFTKPPSLPLEPEPAVESSPTETSEQIREK [D303A], “with no effect”.
With MAEERVATRTQFPVSTESQKPRQKKAPEFPILEKQNWLIHLHYIRKDYEACKAVIKEQLQETQGLCEYAIYVQALIFRLEGNIQESLELFQTCAVLSPQSADNLKQVARSLFLLGKHKAAIEVYNEAAKLNQKDWEISHNLGVCYIYLKQFNKAQDQLHNALNLNRHDLTYIMLGKIHLLEGDLDKAIEVYKKAVEFSPENTELLTTLGLLYLQLGIYQKAFEHLGNALTYDPTNYKAILAAGSMMQTHGDFDVALTKYRVVACAVPESPPLWNNIGMCFFGKKKYVAAISCLKRANYLAPFEWKILYNLGLVHLTMQQYASAFHFLSAAINFQPKMGELYMLLAVALTNLEDIENAKRAYAEAVHLDKCNPLVNLNYAVLLYNQGEKKNALAQYQEMEKKVSLLKDNSSLEFDSEMVEMAQKLGAALQVGEALVWTKPVKDPKSKHQTTSTSKPASFQQPLGSNQALGQAMSSAAAYRTLPSGAGGTSQFTKPPSLPLEPEPAVESSPTETSEQIREK [D303E] the entry was “with no effect”; with MAEERVATRTQFPVSTESQKPRQKKAPEFPILEKQNWLIHLHYIRKDYEACKAVIKEQLQETQGLCEYAIYVQALIFRLEGNIQESLELFQTCAVLSPQSADNLKQVARSLFLLGKHKAAIEVYNEAAKLNQKDWEISHNLGVCYIYLKQFNKAQDQLHNALNLNRHDLTYIMLGKIHLLEGDLDKAIEVYKKAVEFSPENTELLTTLGLLYLQLGIYQKAFEHLGNALTYDPTNYKAILAAGSMMQTHGDFDVALTKYRVVACAVPESPPLWNNIGMCFFGKKKYVAAISCLKRANYLAPFKWKILYNLGLVHLTMQQYASAFHFLSAAINFQPKMGELYMLLAVALTNLEDIENAKRAYAEAVHLDKCNPLVNLNYAVLLYNQGEKKNALAQYQEMEKKVSLLKDNSSLEFDSEMVEMAQKLGAALQVGEALVWTKPVKDPKSKHQTTSTSKPASFQQPLGSNQALGQAMSSAAAYRTLPSGAGGTSQFTKPPSLPLEPEPAVESSPTETSEQIREK [D303K], “with no effect”.
Next, MAEERVATRTQFPVSTESQKPRQKKAPEFPILEKQNWLIHLHYIRKDYEACKAVIKEQLQETQGLCEYAIYVQALIFRLEGNIQESLELFQTCAVLSPQSADNLKQVARSLFLLGKHKAAIEVYNEAAKLNQKDWEISHNLGVCYIYLKQFNKAQDQLHNALNLNRHDLTYIMLGKIHLLEGDLDKAIEVYKKAVEFSPENTELLTTLGLLYLQLGIYQKAFEHLGNALTYDPTNYKAILAAGSMMQTHGDFDVALTKYRVVACAVPESPPLWNNIGMCFFGKKKYVAAISCLKRANYLAPFDRKILYNLGLVHLTMQQYASAFHFLSAAINFQPKMGELYMLLAVALTNLEDIENAKRAYAEAVHLDKCNPLVNLNYAVLLYNQGEKKNALAQYQEMEKKVSLLKDNSSLEFDSEMVEMAQKLGAALQVGEALVWTKPVKDPKSKHQTTSTSKPASFQQPLGSNQALGQAMSSAAAYRTLPSGAGGTSQFTKPPSLPLEPEPAVESSPTETSEQIREK [W304R]: “disrupting interaction strength”.
With MAEERVATRTQFPVSTESQKPRQKKAPEFPILEKQNWLIHLHYIRKDYEACKAVIKEQLQETQGLCEYAIYVQALIFRLEGNIQESLELFQTCAVLSPQSADNLKQVARSLFLLGKHKAAIEVYNEAAKLNQKDWEISHNLGVCYIYLKQFNKAQDQLHNALNLNRHDLTYIMLGKIHLLEGDLDKAIEVYKKAVEFSPENTELLTTLGLLYLQLGIYQKAFEHLGNALTYDPTNYKAILAAGSMMQTHGDFDVALTKYRVVACAVPESPPLWNNIGMCFFGKKKYVAAISCLKRANYLAPFDEKILYNLGLVHLTMQQYASAFHFLSAAINFQPKMGELYMLLAVALTNLEDIENAKRAYAEAVHLDKCNPLVNLNYAVLLYNQGEKKNALAQYQEMEKKVSLLKDNSSLEFDSEMVEMAQKLGAALQVGEALVWTKPVKDPKSKHQTTSTSKPASFQQPLGSNQALGQAMSSAAAYRTLPSGAGGTSQFTKPPSLPLEPEPAVESSPTETSEQIREK [W304E], the “effect of a mutation on the interaction” value is “with no effect”.
On to MAEERVATRTQFPVSTESQKPRQKKAPEFPILEKQNWLIHLHYIRKDYEACKAVIKEQLQETQGLCEYAIYVQALIFRLEGNIQESLELFQTCAVLSPQSADNLKQVARSLFLLGKHKAAIEVYNEAAKLNQKDWEISHNLGVCYIYLKQFNKAQDQLHNALNLNRHDLTYIMLGKIHLLEGDLDKAIEVYKKAVEFSPENTELLTTLGLLYLQLGIYQKAFEHLGNALTYDPTNYKAILAAGSMMQTHGDFDVALTKYRVVACAVPESPPLWNNIGMCFFGKKKYVAAISCLKRANYLAPFDAKILYNLGLVHLTMQQYASAFHFLSAAINFQPKMGELYMLLAVALTNLEDIENAKRAYAEAVHLDKCNPLVNLNYAVLLYNQGEKKNALAQYQEMEKKVSLLKDNSSLEFDSEMVEMAQKLGAALQVGEALVWTKPVKDPKSKHQTTSTSKPASFQQPLGSNQALGQAMSSAAAYRTLPSGAGGTSQFTKPPSLPLEPEPAVESSPTETSEQIREK [W304A], for which the “effect of a mutation on the interaction” value is “with no effect”.
With MAEERVATRTQFPVSTESQKPRQKKAPEFPILEKQNWLIHLHYIRKDYEACKAVIKEQLQETQGLCEYAIYVQALIFRLEGNIQESLELFQTCAVLSPQSADNLKQVARSLFLLGKHKAAIEVYNEAAKLNQKDWEISHNLGVCYIYLKQFNKAQDQLHNALNLNRHDLTYIMLGKIHLLEGDLDKAIEVYKKAVEFSPENTELLTTLGLLYLQLGIYQKAFEHLGNALTYDPTNYKAILAAGSMMQTHGDFDVALTKYRVVACAVPESPPLWNNIGMCFFGKKKYVAAISCLKRANYLAPFDKKILYNLGLVHLTMQQYASAFHFLSAAINFQPKMGELYMLLAVALTNLEDIENAKRAYAEAVHLDKCNPLVNLNYAVLLYNQGEKKNALAQYQEMEKKVSLLKDNSSLEFDSEMVEMAQKLGAALQVGEALVWTKPVKDPKSKHQTTSTSKPASFQQPLGSNQALGQAMSSAAAYRTLPSGAGGTSQFTKPPSLPLEPEPAVESSPTETSEQIREK [W304K] the entry was “with no effect”.
Take MAEERVATRTQFPVSTESQKPRQKKAPEFPILEKQNWLIHLHYIRKDYEACKAVIKEQLQETQGLCEYAIYVQALIFRLEGNIQESLELFQTCAVLSPQSADNLKQVARSLFLLGKHKAAIEVYNEAAKLNQKDWEISHNLGVCYIYLKQFNKAQDQLHNALNLNRHDLTYIMLGKIHLLEGDLDKAIEVYKKAVEFSPENTELLTTLGLLYLQLGIYQKAFEHLGNALTYDPTNYKAILAAGSMMQTHGDFDVALTKYRVVACAVPESPPLWNNIGMCFFGKKKYVAAISCLKRANYLAPFDWEILYNLGLVHLTMQQYASAFHFLSAAINFQPKMGELYMLLAVALTNLEDIENAKRAYAEAVHLDKCNPLVNLNYAVLLYNQGEKKNALAQYQEMEKKVSLLKDNSSLEFDSEMVEMAQKLGAALQVGEALVWTKPVKDPKSKHQTTSTSKPASFQQPLGSNQALGQAMSSAAAYRTLPSGAGGTSQFTKPPSLPLEPEPAVESSPTETSEQIREK [K305E]: the “effect of a mutation on the interaction” value was “with no effect”.
On to MAEERVATRTQFPVSTESQKPRQKKAPEFPILEKQNWLIHLHYIRKDYEACKAVIKEQLQETQGLCEYAIYVQALIFRLEGNIQESLELFQTCAVLSPQSADNLKQVARSLFLLGKHKAAIEVYNEAAKLNQKDWEISHNLGVCYIYLKQFNKAQDQLHNALNLNRHDLTYIMLGKIHLLEGDLDKAIEVYKKAVEFSPENTELLTTLGLLYLQLGIYQKAFEHLGNALTYDPTNYKAILAAGSMMQTHGDFDVALTKYRVVACAVPESPPLWNNIGMCFFGKKKYVAAISCLKRANYLAPFDWAILYNLGLVHLTMQQYASAFHFLSAAINFQPKMGELYMLLAVALTNLEDIENAKRAYAEAVHLDKCNPLVNLNYAVLLYNQGEKKNALAQYQEMEKKVSLLKDNSSLEFDSEMVEMAQKLGAALQVGEALVWTKPVKDPKSKHQTTSTSKPASFQQPLGSNQALGQAMSSAAAYRTLPSGAGGTSQFTKPPSLPLEPEPAVESSPTETSEQIREK [K305A], for which the “effect of a mutation on the interaction” value was “with no effect”.
